Experiment: yeast display, Sf9 membrane polyspecificity reagent, FACS + sequencing; frameworks hold sequencing errors
In short: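 A synthetic nanobody library was expressed on Saccharomyces cerevisiae BJ5465 by galactose induction for 36–48 hours. The library was stained for 1 hour at 4 °C with 10% biotinylated, detergent-solubilized Sf9 membrane reagent and enriched with streptavidin microbeads before FACS. Low and high (top ~1%) gates were set on anti-HA fluorescence for expression and streptavidin fluorescence for reagent binding, and each polyreactivity label reflects the gate of origin.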

QVQLVESGGGLVQAGGSLRLSCAASGFIFYPYAMGWYRQAPGKERELVASIYSGGRTYYADSVKGRFTISRDNAKNTVYLQMNSLKPEDTAVYYCNARSRYFGYDYWGQGTQVTVSS
polyreactivity (PSR sort gate): high polyreactivity

QVQLVESGGGLVQAGGSLRLSCAASGFIFYPYAMGWYRQAPGKERELVAVITSGGRTYYADSVKGRFTISRDNAKNTVYLQMNSLKPEDTAVYYCAARYGSIHWKANWPEYGYWGQGTQVTVSS
polyreactivity (PSR sort gate): low polyreactivity

QVQLVESGGGLVQAGGSLRLSCAASGFIFYPYAMGWYRQATGKETELVAAITWSGGTTTYADSEKGRFTISRDNAKNTVYLQMNSLKPEDTAVYSCAALWYYGRYPYDYWGQGTQVTVSS
polyreactivity (PSR sort gate): high polyreactivity

QVQLVESGGGLVQAGGSLRLSCAASGFIFYQYAMGWYRQAPGKERELVAAISRSGGSTYYADSVKGRFTISRDNAKNTVYLQMNSLKPEDTAVYYCNAVYRSIRPRYDYWGQGTQVTVSS
polyreactivity (PSR sort gate): high polyreactivity

QVQLVESGGGLVQAGGSLRLSCAASGFIFYRNAMGWYRQAPGKERELVAAISQRGGRTYADSVKGRFTISRDNAKNTVYLQMNSLKPEDTAFYYCAADGARLSQTTRRFDYWGQGTQVTVSS
polyreactivity (PSR sort gate): low polyreactivity

QVQLVESGGGLVQAGGSLRLSCAASGFIFYRNTMGWYRQAPGKERELVAANSVSGGSTNYADSVKGRFTISRDNAKNTVYLQMNSLKPEDSAVYYCAARVRDSLVYGGWDDYWGQGTQVTVSS
polyreactivity (PSR sort gate): high polyreactivity

QVQLVESGGGLVQAGGSLRLSCAASGFIFYRYAKGWYRQPPGKERELVAAITKSGTSTYYADSVKGRFTISRDNAKNTVYLQMNSLKPEDTAVYYCNADVRSRSRGSSGYDYWGQGTQVTVSS
polyreactivity (PSR sort gate): low polyreactivity

QVQLVESGGGLVQAGGSLRLSCAASGFIFYRYAMGWYRPAPGKERELVAAISRSGGTTYYADSVKGRFTISRDNAKNTVYLQMNSLKPEETAVYYCAAVGTVSRTVGYKYWGQGTQVTVSS
polyreactivity (PSR sort gate): high polyreactivity

QVQLVESGGGLVQAGGSLRLSCAASGFIFYRYAMGWYRQAPGKERELVAAISSSGGSTYYADSVKGRFTISRDNAKNTVYLQMNSLKPEDTAVYYCAAEPSGKRSKFYYWGQGTQVTVSS
polyreactivity (PSR sort gate): high polyreactivity

QVQLVESGGGLVQAGGSLRLSCAASGFIFYRYAMGWYRQAPGKERELVAAITGGGSTYYADSVKGRFTISRDNAKNNFYLQMNSLKPEDTAVYYCAARKRYWFTPYDYWGQGTQVTVSS
polyreactivity (PSR sort gate): high polyreactivity

QVQLVESGGGLVQAGGSLRLSCAASGFIFYRYAMGWYRQAPGKERELVASITRSGGSTYYADSVKGRFTISRDNAKNTVYLQMNCLKPEDTAVYYCAADRYLGTYRYRYDYWGQGTQVTVSS
polyreactivity (PSR sort gate): high polyreactivity

QVQLVESGGGLVQAGGSLRLSCAASGFIFYRYLMGWYRQAPGKERELVAAISRSGDRTYYADSVKGRFTISRDNAKNTVYLQMNSLKPEDTAVYDCAAALYYFSRGYWGQGTQVTVSS
polyreactivity (PSR sort gate): high polyreactivity

QVQLVESGGGLVQAGGSLRLSCAASGFIFYSNAMGSYRQAPGKERELVASITGDGGTTYYADSVKGRFTISRDNAKTTGYLEMNSLKPEDTAVYYCAKDYIYRGYYTDFRYEDYDYWGQGTQVTVSS
polyreactivity (PSR sort gate): low polyreactivity

QVQLVESGGGLVQAGGSLRLSCAASGFIFYSNAMGWYSQAPGKVRELVAAISRGGGSTYYADSVKGRFTISRDNAKNTVYLQMNSLKPEDTAVYYCAKRRLSPQDDYWGQGTQVTLSS
polyreactivity (PSR sort gate): high polyreactivity

QVQLVESGGGLVQAGGSLRLSCAASGFIFYSYTMGWYRQAPGKERELVATISSNGGRTYYADSVKGRFTISRDNAKNTVYLQMNSLKPEDTAVYYCATDVPHGYYWSYGDYYWGQGTQVTVSS
polyreactivity (PSR sort gate): low polyreactivity

QVQLVESGGGLVQAGGSLRLSCAASGFIFYTYTRGWSRQAHGKERELVAAISYSGGRTYSADSVKGRFTISRDNAKNTVYLQMNSLKPEDTAVYYCAARRYYNSVANENNYWGQGTQVTVSS
polyreactivity (PSR sort gate): high polyreactivity

QVQLVESGGGLVQAGGSLRLSCAASGFIFYYAMGWYRPAPGKERELVAGITESDGSTNYADSVKGRFTISRDNAKNTVYLQMNSLKPEDTAVYYCAKDASSLRFDYWGQGTQVTVSS
polyreactivity (PSR sort gate): low polyreactivity

QVQLVESGGGLVQAGGSLRLSCAASGFIFYYAMGWYRQAPVKERELVAAISRGGSTNYADSVKGRFTISRDNAKNTVYLQMNSLKPEDTAVYYCNARVYSSRARWGTYDYWGQGTQVTVSS
polyreactivity (PSR sort gate): high polyreactivity

QVQLVESGGGLVQAGGSLRLSCAASGFIFYYNAMGWYRQAPGKERELVAAISTDGGSTYYADSVKGRFTISRDNAKNTVYLQMNSLNPEDTAVYYCAAKRYKRYDYWGQGTQVTVSS
polyreactivity (PSR sort gate): low polyreactivity

QVQLVESGGGLVQAGGSLRLSCAASGFIFYYNAMGWYRQAPGKERELVAAITRSGGSTFYADSVKGRFTISRDNAKNTVYLQMNSLKPEDTAVYYCAAKGNPYRVPGSSYPKVNYWGQGTQVTVSS
polyreactivity (PSR sort gate): high polyreactivity

QVQLVESGGGLVQAGGSLRLSCAASGFIFYYNAMGWYRQAPGKERELVATIRGSGGSTYYADSVKGRFTISRDNAKNTVYLQMNSLKPEDTAVYYCATTIYGLTSRLYYWGQGTQVTVSS
polyreactivity (PSR sort gate): high polyreactivity

QVQLVESGGGLVQAGGSLRLSCAASGFIFYYNTMGWYRQAPGKERELVAAINSGGSTYYADSVKGRFTISRDNAKNTVYLQMNSLKPEDTAVYYCAKRYAVSSRYYYWGQGTQVTVSS
polyreactivity (PSR sort gate): high polyreactivity

Source: the nanobody polyreactivity screen of Harvey et al. (2022)
